From patent US20250304643A1 (BAINAN BIOTECH, published 2025)
*1 amine or outer side, *2 acyl side, *3 side chain or, on linkers, in order; H or OH if unused. Side-chain parts run from the residue outwards. [ ]: non-standard residue; d: D form. The star is where a group is joined. C16 diacid = O=C(O)CCCCCCCCCCCCCCC(=O)*; γGlu = O=C(O)[C@H](CCC(=O)[*:2])N[*:1]; Palmitoyl = CCCCCCCCCCCCCCCC(=O)*; Aib = CC(C)(N)C(=O)O

T1: human glucose-dependent insulinotropic polypeptide receptor (human, UniProt P48546 22-466)
T1 sequence (looked up): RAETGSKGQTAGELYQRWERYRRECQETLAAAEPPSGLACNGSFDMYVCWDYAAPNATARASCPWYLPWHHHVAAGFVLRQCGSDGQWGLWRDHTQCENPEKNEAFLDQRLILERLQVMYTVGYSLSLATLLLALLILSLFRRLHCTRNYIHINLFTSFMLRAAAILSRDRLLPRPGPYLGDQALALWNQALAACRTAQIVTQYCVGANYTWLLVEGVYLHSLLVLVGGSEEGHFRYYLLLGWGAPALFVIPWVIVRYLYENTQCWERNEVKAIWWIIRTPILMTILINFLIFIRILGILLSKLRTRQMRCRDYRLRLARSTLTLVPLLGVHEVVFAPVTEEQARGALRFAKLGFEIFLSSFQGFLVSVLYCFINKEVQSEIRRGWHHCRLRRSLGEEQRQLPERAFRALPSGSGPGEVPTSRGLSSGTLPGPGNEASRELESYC

T2: human glucagon-like peptide-2 receptor (human, UniProt O95838 1-553)
T2 sequence (looked up): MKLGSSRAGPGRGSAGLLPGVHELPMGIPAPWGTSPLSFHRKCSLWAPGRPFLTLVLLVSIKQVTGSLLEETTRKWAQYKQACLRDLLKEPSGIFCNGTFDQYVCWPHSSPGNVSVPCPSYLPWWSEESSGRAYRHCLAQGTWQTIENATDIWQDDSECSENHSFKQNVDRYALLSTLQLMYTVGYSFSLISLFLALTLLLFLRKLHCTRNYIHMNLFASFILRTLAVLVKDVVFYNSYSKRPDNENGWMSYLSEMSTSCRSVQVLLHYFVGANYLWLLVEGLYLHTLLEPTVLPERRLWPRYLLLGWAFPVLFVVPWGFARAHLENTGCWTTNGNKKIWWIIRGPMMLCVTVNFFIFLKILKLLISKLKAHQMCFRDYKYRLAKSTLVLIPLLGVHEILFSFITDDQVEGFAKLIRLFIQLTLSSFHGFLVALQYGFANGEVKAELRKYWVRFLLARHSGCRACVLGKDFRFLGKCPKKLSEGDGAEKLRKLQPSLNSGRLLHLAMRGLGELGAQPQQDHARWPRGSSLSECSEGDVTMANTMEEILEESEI

B1: Compound no. 19 (peptide)
peptide: {C16 diacid}-H[Aib]EGTFISDYST[Aib]LDNLAARDFINWLIQTKITK-OH
SMILES: CC[C@H](C)[C@H](NC(=O)[C@H](Cc1ccccc1)NC(=O)[C@H](CC(=O)O)NC(=O)[C@H](CCCNC(=N)N)NC(=O)[C@H](C)NC(=O)[C@H](C)NC(=O)[C@H](CC(C)C)NC(=O)[C@H](CC(N)=O)NC(=O)[C@H](CC(=O)O)NC(=O)[C@H](CC(C)C)NC(=O)C(C)(C)NC(=O)[C@@H](NC(=O)[C@H](CO)NC(=O)[C@H](Cc1ccc(O)cc1)NC(=O)[C@H](CC(=O)O)NC(=O)[C@H](CO)NC(=O)[C@@H](NC(=O)[C@H](Cc1ccccc1)NC(=O)[C@@H](NC(=O)CNC(=O)[C@H](CCC(=O)O)NC(=O)C(C)(C)NC(=O)[C@H](Cc1c[nH]cn1)NC(=O)CCCCCCCCCCCCCCC(=O)O)[C@@H](C)O)[C@@H](C)CC)[C@@H](C)O)C(=O)N[C@@H](CC(N)=O)C(=O)N[C@@H](Cc1c[nH]c2ccccc12)C(=O)N[C@@H](CC(C)C)C(=O)N[C@H](C(=O)N[C@@H](CCC(N)=O)C(=O)N[C@H](C(=O)N[C@@H](CCCCN)C(=O)N[C@H](C(=O)N[C@H](C(=O)N[C@@H](CCCCN)C(=O)O)[C@@H](C)O)[C@@H](C)CC)[C@@H](C)O)[C@@H](C)CC
B2: Compound no. 17 (peptide)
peptide: {C16 diacid}-H[Aib]DGTFISDYST[Aib]LDNLAARDFINWLIQTKITK-OH
SMILES: CC[C@H](C)[C@H](NC(=O)[C@H](Cc1ccccc1)NC(=O)[C@H](CC(=O)O)NC(=O)[C@H](CCCNC(=N)N)NC(=O)[C@H](C)NC(=O)[C@H](C)NC(=O)[C@H](CC(C)C)NC(=O)[C@H](CC(N)=O)NC(=O)[C@H](CC(=O)O)NC(=O)[C@H](CC(C)C)NC(=O)C(C)(C)NC(=O)[C@@H](NC(=O)[C@H](CO)NC(=O)[C@H](Cc1ccc(O)cc1)NC(=O)[C@H](CC(=O)O)NC(=O)[C@H](CO)NC(=O)[C@@H](NC(=O)[C@H](Cc1ccccc1)NC(=O)[C@@H](NC(=O)CNC(=O)[C@H](CC(=O)O)NC(=O)C(C)(C)NC(=O)[C@H](Cc1c[nH]cn1)NC(=O)CCCCCCCCCCCCCCC(=O)O)[C@@H](C)O)[C@@H](C)CC)[C@@H](C)O)C(=O)N[C@@H](CC(N)=O)C(=O)N[C@@H](Cc1c[nH]c2ccccc12)C(=O)N[C@@H](CC(C)C)C(=O)N[C@H](C(=O)N[C@@H](CCC(N)=O)C(=O)N[C@H](C(=O)N[C@@H](CCCCN)C(=O)N[C@H](C(=O)N[C@H](C(=O)N[C@@H](CCCCN)C(=O)O)[C@@H](C)O)[C@@H](C)CC)[C@@H](C)O)[C@@H](C)CC
B3: Compound no. 13 (peptide)
peptide: H-H[Aib]DGTFISDYSTILK([γGlu-Palmitoyl])NLAARDFINWLIQTKITK-OH
SMILES: CCCCCCCCCCCCCCCC(=O)N[C@@H](CCC(=O)NCCCC[C@H](NC(=O)[C@H](CC(C)C)NC(=O)[C@@H](NC(=O)[C@@H](NC(=O)[C@H](CO)NC(=O)[C@H](Cc1ccc(O)cc1)NC(=O)[C@H](CC(=O)O)NC(=O)[C@H](CO)NC(=O)[C@@H](NC(=O)[C@H](Cc1ccccc1)NC(=O)[C@@H](NC(=O)CNC(=O)[C@H](CC(=O)O)NC(=O)C(C)(C)NC(=O)[C@@H](N)Cc1c[nH]cn1)[C@@H](C)O)[C@@H](C)CC)[C@@H](C)O)[C@@H](C)CC)C(=O)N[C@@H](CC(N)=O)C(=O)N[C@@H](CC(C)C)C(=O)N[C@@H](C)C(=O)N[C@@H](C)C(=O)N[C@@H](CCCNC(=N)N)C(=O)N[C@@H](CC(=O)O)C(=O)N[C@@H](Cc1ccccc1)C(=O)N[C@H](C(=O)N[C@@H](CC(N)=O)C(=O)N[C@@H](Cc1c[nH]c2ccccc12)C(=O)N[C@@H](CC(C)C)C(=O)N[C@H](C(=O)N[C@@H](CCC(N)=O)C(=O)N[C@H](C(=O)N[C@@H](CCCCN)C(=O)N[C@H](C(=O)N[C@H](C(=O)N[C@@H](CCCCN)C(=O)O)[C@@H](C)O)[C@@H](C)CC)[C@@H](C)O)[C@@H](C)CC)[C@@H](C)CC)C(=O)O
B4: Compound no. 10 (peptide)
peptide: H-H[Aib]DGTFK([γGlu-Palmitoyl])SDYSTILDNLAARDFINWLIQTKITK-OH
SMILES: CCCCCCCCCCCCCCCC(=O)N[C@@H](CCC(=O)NCCCC[C@H](NC(=O)[C@H](Cc1ccccc1)NC(=O)[C@@H](NC(=O)CNC(=O)[C@H](CC(=O)O)NC(=O)C(C)(C)NC(=O)[C@@H](N)Cc1c[nH]cn1)[C@@H](C)O)C(=O)N[C@@H](CO)C(=O)N[C@@H](CC(=O)O)C(=O)N[C@@H](Cc1ccc(O)cc1)C(=O)N[C@@H](CO)C(=O)N[C@H](C(=O)N[C@H](C(=O)N[C@@H](CC(C)C)C(=O)N[C@@H](CC(=O)O)C(=O)N[C@@H](CC(N)=O)C(=O)N[C@@H](CC(C)C)C(=O)N[C@@H](C)C(=O)N[C@@H](C)C(=O)N[C@@H](CCCNC(=N)N)C(=O)N[C@@H](CC(=O)O)C(=O)N[C@@H](Cc1ccccc1)C(=O)N[C@H](C(=O)N[C@@H](CC(N)=O)C(=O)N[C@@H](Cc1c[nH]c2ccccc12)C(=O)N[C@@H](CC(C)C)C(=O)N[C@H](C(=O)N[C@@H](CCC(N)=O)C(=O)N[C@H](C(=O)N[C@@H](CCCCN)C(=O)N[C@H](C(=O)N[C@H](C(=O)N[C@@H](CCCCN)C(=O)O)[C@@H](C)O)[C@@H](C)CC)[C@@H](C)O)[C@@H](C)CC)[C@@H](C)CC)[C@@H](C)CC)[C@@H](C)O)C(=O)O

Target: T1, human glucose-dependent insulinotropic …
Assay: cell-based or functional assay

Row | Efficacy GIPR | Binder
1 | 99% | Palmitoyl-HADGTFISDYSTILD[Aib]LAARDFINWLIQTKITKNDWKHNITQ-OH [Compound no. 16]
2 | 98% | B1
3 | 106% | Palmitoyl-HADGTFISDYSTILELLAARDFINWLIQTKITKNDWKHNITQ-OH [Compound no. 15]
4 | 98% | B2
5 | 101% | H-H[Aib]DGTFISDYK([γGlu-Palmitoyl])TILDNLAARDFINWLIQTKGKKNDWKHNITQ-NH2 [Compound no. 14]
6 | 95% | B3
7 | 102% | B4
8 | 115% | HXDGTFISDYKTILDNLAARDFINWLIQTKITK (Aib at 2; K(γGlu-C16) at 11; C-terminal -OH) [Compound no. 11]

Target: T2, human glucagon-like peptide-2 receptor
Assay: cell-based or functional assay

Row | Efficacy GLP-2R | Binder
9 | 64% | Palmitoyl-HADGTFISDYSTILD[Aib]LAARDFINWLIQTKITKNDWKHNITQ-OH [Compound no. 16]
10 | 81% | B1
11 | 70% | Palmitoyl-HADGTFISDYSTILELLAARDFINWLIQTKITKNDWKHNITQ-OH [Compound no. 15]
12 | 90% | B2
13 | 114% | H-H[Aib]DGTFISDYK([γGlu-Palmitoyl])TILDNLAARDFINWLIQTKGKKNDWKHNITQ-NH2 [Compound no. 14]
14 | 95% | B3
15 | 23% | B4
16 | 87% | HXDGTFISDYKTILDNLAARDFINWLIQTKITK (Aib at 2; K(γGlu-C16) at 11; C-terminal -OH) [Compound no. 11]
